# According to the supplement of paper PMC9112550, “Optimization of the antimicrobial peptide Bac7 by deep mutational scanning” (BMC Biology, 2022):
# Test system: Escherichia coli TOP10
# Assay: shrunken log2 fold change of peptide-encoding DNA abundance (4.5 h post-induction vs induction); higher = less antimicrobial activity (less host growth inhibition)
# Settings: time post-induction: 4.5 h; library: site-saturation at positions 5, 18, 19, 20
# 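Further: peptides expressed intracellularly from a pBAD plasmid library in pooled LB shake-flask culture, induced with 0.3% L-arabinose, DNA abundance read by NGS, three biological replicates, DESeq2 with apeglm shrinkage.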
row,Sequence,shrunken log2 fold change
1,RRIRDRPPRLPRPRPRPVNEPRP,0.0314
2,RRIRSRPPRLPRPRPRPPGPPRP,0.64
3,RRIRGRPPRLPRPRPRPIRGPRP,0.29
4,RRIRKRPPRLPRPRPRPICRPRP,0.0069
5,RRIRVRPPRLPRPRPRPDICPRP,0.221
6,RRIRDRPPRLPRPRPRPGAAPRP,1.09
7,RRIRKRPPRLPRPRPRPAATPRP,0.838
8,RRIRERPPRLPRPRPRPQQWPRP,0.19
9,RRIRYRPPRLPRPRPRPLADPRP,-0.213
10,RRIRERPPRLPRPRPRPTYKPRP,-0.579
11,RRIRYRPPRLPRPRPRPSPTPRP,-0.167
12,RRIRARPPRLPRPRPRPTFRPRP,0.323
13,RRIRMRPPRLPRPRPRPSDWPRP,0.998
14,RRIRRRPPRLPRPRPRPWIRPRP,-0.298
15,RRIRNRPPRLPRPRPRPLRQPRP,0.154
16,RRIRRRPPRLPRPRPRPFFAPRP,0.98
17,RRIRRRPPRLPRPRPRPQSVPRP,-0.0146
18,RRIRARPPRLPRPRPRPNDEPRP,0.361
19,RRIRSRPPRLPRPRPRPSRKPRP,-0.0434
20,RRIRCRPPRLPRPRPRPEEVPRP,0.362
21,RRIRYRPPRLPRPRPRPLEFPRP,-0.89
22,RRIRGRPPRLPRPRPRPIMTPRP,2.36
23,RRIRERPPRLPRPRPRPSGAPRP,-0.12
24,RRIRIRPPRLPRPRPRPTFPPRP,-0.316
25,RRIRYRPPRLPRPRPRPISWPRP,-0.0102

row,Sequence,shrunken log2 fold change
1,RRIRQRPPRLPRPRPRPSVTPRP,-0.0462
2,RRIRTRPPRLPRPRPRPQYNPRP,-0.856
3,RRIRIRPPRLPRPRPRPCKAPRP,-0.181
4,RRIRKRPPRLPRPRPRPSTDPRP,-0.135
5,RRIRNRPPRLPRPRPRPVGRPRP,0.118
6,RRIRFRPPRLPRPRPRPDSNPRP,-0.758
7,RRIRDRPPRLPRPRPRPVKIPRP,-0.101
8,RRIRYRPPRLPRPRPRPHVQPRP,-0.0701
9,RRIRCRPPRLPRPRPRPNTVPRP,-0.768
10,RRIRWRPPRLPRPRPRPFRTPRP,-0.16
11,RRIRCRPPRLPRPRPRPIPRPRP,0.73
12,RRIRRRPPRLPRPRPRPGDFPRP,0.464
13,RRIRARPPRLPRPRPRPHCFPRP,0.36
14,RRIRHRPPRLPRPRPRPMDKPRP,-0.123
15,RRIRVRPPRLPRPRPRPSHVPRP,-0.0313
16,RRIRGRPPRLPRPRPRPHCHPRP,0.284
17,RRIRRRPPRLPRPRPRPSTIPRP,-0.121
18,RRIRERPPRLPRPRPRPSHEPRP,-0.0595
19,RRIRVRPPRLPRPRPRPVYLPRP,-0.108
20,RRIRLRPPRLPRPRPRPKCTPRP,0.0446
21,RRIRKRPPRLPRPRPRPGRNPRP,-0.105
22,RRIRQRPPRLPRPRPRPDRVPRP,0.00438
23,RRIRMRPPRLPRPRPRPQGLPRP,0.0389
24,RRIRSRPPRLPRPRPRPESKPRP,0.385
25,RRIRRRPPRLPRPRPRPVYFPRP,-0.267

row,Sequence,shrunken log2 fold change
1,RRIRVRPPRLPRPRPRPEMLPRP,0.0987
2,RRIRDRPPRLPRPRPRPPWFPRP,0.336
3,RRIRMRPPRLPRPRPRPKGPPRP,0.716
4,RRIRSRPPRLPRPRPRPGPNPRP,-0.0665
5,RRIRTRPPRLPRPRPRPNTSPRP,-0.43
6,RRIRYRPPRLPRPRPRPFNRPRP,-0.0175
7,RRIRHRPPRLPRPRPRPWPAPRP,0.292
8,RRIRDRPPRLPRPRPRPDDQPRP,0.259
9,RRIRSRPPRLPRPRPRPWNAPRP,-0.443
10,RRIRRRPPRLPRPRPRPCMHPRP,0.105
11,RRIRWRPPRLPRPRPRPYLDPRP,-0.33
12,RRIRLRPPRLPRPRPRPKNSPRP,-0.27
13,RRIRWRPPRLPRPRPRPQDMPRP,-0.199
14,RRIRPRPPRLPRPRPRPFHQPRP,-0.216
15,RRIRWRPPRLPRPRPRPYKGPRP,-0.0487
16,RRIRGRPPRLPRPRPRPQWCPRP,0.216
17,RRIRSRPPRLPRPRPRPLQVPRP,-0.157
18,RRIRARPPRLPRPRPRPLYVPRP,-0.0921
19,RRIRDRPPRLPRPRPRPGFGPRP,0.264
20,RRIRSRPPRLPRPRPRPHLPPRP,-0.27
21,RRIRERPPRLPRPRPRPGSVPRP,0.00838
22,RRIRHRPPRLPRPRPRPIQFPRP,-0.482
23,RRIRLRPPRLPRPRPRPIQIPRP,0.03
24,RRIRDRPPRLPRPRPRPRYKPRP,-0.202
25,RRIRFRPPRLPRPRPRPALDPRP,0.436

row,Sequence,shrunken log2 fold change
1,RRIRRRPPRLPRPRPRPCKMPRP,-0.0577
2,RRIRGRPPRLPRPRPRPMDYPRP,0.0324
3,RRIRGRPPRLPRPRPRPVFVPRP,0.324
4,RRIRWRPPRLPRPRPRPSWLPRP,-0.167
5,RRIRLRPPRLPRPRPRPDHFPRP,0.0304
6,RRIRQRPPRLPRPRPRPSILPRP,-0.177
7,RRIRQRPPRLPRPRPRPVWAPRP,-0.468
8,RRIRQRPPRLPRPRPRPEYMPRP,-0.0613
9,RRIRARPPRLPRPRPRPERYPRP,0.0113
10,RRIRCRPPRLPRPRPRPVEQPRP,-0.0247
11,RRIRSRPPRLPRPRPRPNLNPRP,-0.307
12,RRIRYRPPRLPRPRPRPSYRPRP,-0.0896
13,RRIRVRPPRLPRPRPRPCAQPRP,-0.186
14,RRIRTRPPRLPRPRPRPSAAPRP,0.186
15,RRIRHRPPRLPRPRPRPDMWPRP,-0.175
16,RRIRQRPPRLPRPRPRPFNQPRP,0.00312
17,RRIRGRPPRLPRPRPRPSFGPRP,0.0834
18,RRIRHRPPRLPRPRPRPGVHPRP,-0.9
19,RRIRVRPPRLPRPRPRPMIKPRP,-0.156
20,RRIRCRPPRLPRPRPRPEGNPRP,-0.0225
21,RRIRWRPPRLPRPRPRPINYPRP,-0.387
22,RRIRYRPPRLPRPRPRPDINPRP,-0.162
23,RRIRWRPPRLPRPRPRPCSRPRP,-0.162
24,RRIRMRPPRLPRPRPRPFTRPRP,-0.0636
25,RRIRQRPPRLPRPRPRPSDEPRP,-0.275

row,Sequence,shrunken log2 fold change
1,RRIRSRPPRLPRPRPRPYGTPRP,-0.196
2,RRIRIRPPRLPRPRPRPKLWPRP,-0.182
3,RRIRKRPPRLPRPRPRPTTHPRP,0.495
4,RRIRDRPPRLPRPRPRPDATPRP,0.0857
5,RRIRCRPPRLPRPRPRPWSIPRP,0.0457
6,RRIRKRPPRLPRPRPRPIIYPRP,0.0162
7,RRIRSRPPRLPRPRPRPQLVPRP,0.0331
8,RRIRQRPPRLPRPRPRPGKAPRP,0.0185
9,RRIRERPPRLPRPRPRPIGNPRP,-0.134
10,RRIRYRPPRLPRPRPRPWVDPRP,-0.445
11,RRIRIRPPRLPRPRPRPDMSPRP,-0.00804
12,RRIRFRPPRLPRPRPRPCEWPRP,0.134
13,RRIRKRPPRLPRPRPRPMSAPRP,0.0584
14,RRIRSRPPRLPRPRPRPCKCPRP,-0.359
15,RRIRSRPPRLPRPRPRPMDIPRP,-0.00112
16,RRIRKRPPRLPRPRPRPKMSPRP,-0.315
17,RRIRWRPPRLPRPRPRPEFKPRP,0.0019
18,RRIRNRPPRLPRPRPRPDHKPRP,-0.398
19,RRIRPRPPRLPRPRPRPKYNPRP,-0.633
20,RRIRVRPPRLPRPRPRPDPVPRP,-0.00845
21,RRIRYRPPRLPRPRPRPVTMPRP,-0.688
22,RRIRGRPPRLPRPRPRPEFAPRP,1.22
23,RRIRHRPPRLPRPRPRPQYVPRP,-0.213
24,RRIRLRPPRLPRPRPRPQYFPRP,-0.158
25,RRIRTRPPRLPRPRPRPEPEPRP,0.323

row,Sequence,shrunken log2 fold change
1,RRIRQRPPRLPRPRPRPCPKPRP,4.03
2,RRIRVRPPRLPRPRPRPYVIPRP,-0.189
3,RRIRKRPPRLPRPRPRPQMLPRP,-0.167
4,RRIRRRPPRLPRPRPRPPIFPRP,0.16
5,RRIRFRPPRLPRPRPRPWTLPRP,-0.259
6,RRIRGRPPRLPRPRPRPLKAPRP,0.0177
7,RRIRVRPPRLPRPRPRPKCQPRP,0.106
8,RRIRNRPPRLPRPRPRPDDDPRP,-0.153
9,RRIRQRPPRLPRPRPRPSEHPRP,-0.195
10,RRIRCRPPRLPRPRPRPVIVPRP,-0.208
11,RRIRNRPPRLPRPRPRPKFHPRP,-0.078
12,RRIRKRPPRLPRPRPRPNQQPRP,0.101
13,RRIRDRPPRLPRPRPRPRTHPRP,-0.188
14,RRIRNRPPRLPRPRPRPTLTPRP,0.0952
15,RRIRLRPPRLPRPRPRPYEQPRP,-0.104
16,RRIRRRPPRLPRPRPRPITQPRP,-0.0203
17,RRIRVRPPRLPRPRPRPLAEPRP,0.433
18,RRIRARPPRLPRPRPRPDCYPRP,0.283
19,RRIRWRPPRLPRPRPRPPKQPRP,1.07
20,RRIRARPPRLPRPRPRPWYAPRP,-0.307
21,RRIRHRPPRLPRPRPRPLPIPRP,-0.598
22,RRIRCRPPRLPRPRPRPTHTPRP,0.388
23,RRIRGRPPRLPRPRPRPVPHPRP,-0.0133
24,RRIRQRPPRLPRPRPRPTCGPRP,0.285
25,RRIRLRPPRLPRPRPRPAFQPRP,0.108
